What was measured:
[1] = target: T1, amphyphisin SH3 (AMPH_HUMAN), P49418; experiment: SPOT array
T1 chain: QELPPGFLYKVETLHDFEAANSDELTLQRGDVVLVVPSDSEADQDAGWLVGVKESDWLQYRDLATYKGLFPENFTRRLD

[2] = target: endophilin SH3 (SH3G2_HUMAN), Q99962; experiment: SPOT array

Binder | normalised SPOT signal, Boehringer light units (BLU); mean over the file's lines of this peptide [1] | normalised SPOT signal, Boehringer light units (BLU); mean over the file's lines of this peptide [2]
RHQRLHRPGRPVPG [Q92657 54-67] | 11.8 | 64.3
RELDLSRPSRSISL [Q12879 1300-1313] | 3150 | 98.7
RKFSLERPFRPSVT [Q9BXL7 634-647] | 797 | 105
RGERLPRPDKSPSE [P29597 1130-1143] | 3.2 | 116
RGGPPPRPPPRQSL [Q9HCU4 2874-2888] | 17900 | 17200
RDFIISRPTKLKSL [Q9Y6K5 932-945] | 108 | 182
RGIQFKRPHTVAPW [O43561 47-60] | 35.2 | 28.6
RHPRPRRPGGPALR [Q9H7T3 112-125] | 92.1 | 266
AVAIPNRPPDAVLT [P51659 480-494] | 49.8 | 79.1
REDRFRRPRDEGGW [Q14152 1235-1248] | 46 | 116
RGGPPSKPPAPEDE [P48634 419-433] | 38.6 | 33.5
RFALFKRPKANGVK [Q9GZY5 40-53] | 19.2 | 13.5
RIIAFSRPVKYEDV [Q99759 56-69] | 113 | 79.6
RSVRPSRPPRGFQP [O43184 749-763] | 12400 | 13300
RGFLPYRPPRPAFF [Q96RT6 725-739] | 7280 | 13700
RHASPARPPAARSQ [Q96JG1 528-542] | 434 | 4680
RHPKPLKPPWHLSM [P41215 45-59] | 76.6 | 3220
RGAQLRRPRHSHLT [Q13399 123-136] | 25.3 | 53.2
ATGTLKRPTSLSRH [Q92619 87-100] | 32.9 | 23.6
RAWIPGKPPSPPRG [Q14069 9-23] | 1950 | 4770
RDLIFKRPSRQFQY [Q92797 568-581] | 5070 | 190

Binder | normalised SPOT signal, Boehringer light units (BLU); mean over the file's lines of this peptide [1] | normalised SPOT signal, Boehringer light units (BLU); mean over the file's lines of this peptide [2]
RDAFLKRPISNKYM [Q9H278 225-238] | 34.7 | 254
RSWVLRRPMLAAAG [P36776 15-28] | 19 | 412
RHLAPNRPSKSRTD [Q9NTH0 93-106] | 530 | 257
ATPLPRRPQPRDLG | 132 | 6070
RAVDLRRPLLHELL [Q9NXT9 123-136] | 114 | 67.7
RSSFPVRPPTASTI [Q9NPY2 259-273] | 167 | 3140
REAALERPRRTKRE [Q96LA8 29-42] | 2500 | 330
REAGFKRPVVLFGP [Q9UDY2 725-738] | 24.6 | 23.8
REASFKRPVVILGP [O95049 627-640] | 47.4 | 18.3
ATPLPRRPQPRQFF | 151 | 19900
RGDDLRRPATMKGK [Q96T37 35-48] | 30 | 144
RHWRPWRPDKTKKQ [Q9NWH6 590-603] | 580 | 568
REVSLKRPLGNSPG [P17036 132-145] | 39.7 | 55.7
REKKPPRPPKKKYQ [Q9NR48 1976-1990] | 56.2 | 6480
RGAQLRRPRHSHPT [Q16360 129-142] | 53.3 | 40.1
RKMEIYRPHKANAE [Q13547 49-62] | 90.1 | 78.7
RASSPKRPGPWSEP [P08922 650-663] | 48.7 | 66.3
RGQEFRRPSTLSEL [P13674 520-533] | 38.7 | 158
RHLSPRRPVSPGKD [P31629 1496-1509] | 60.1 | 332
RILQFPRPVKLEDL [Q9Y2U5 55-68] | 108 | 119
RHLILKRPGFQEHE [Q96JB4 119-132] | 67.7 | 128
